In article PMC4834553:

Tests used:
Vn^80–396 (human) = assay: BLI; Octet RED96; Vn 80–396 immobilised on AR2G sensors by amine coupling at pH 5; KatA as analyte, 1 in 3 dilution series (50–0.055 nM) in PBS, 0.05% Tween20; KD from steady state analysis
[1] = target: catalase KatA of H. pylori CCUG18943, endogenous (Helicobacter pylori (endogenous in strain CCUG18943)) (UniProt P77872); assay: flow cytometry on cells; whole H. pylori (wt and ΔkatA) incubated with 3 μg human serum Vn per 10^6 cells, 1 h, 37 °C, PBS 1% BSA; sheep anti-human Vn Ab and FITC-conjugated anti-sheep pAb
[2] = target: catalase KatA of H. pylori KR497, endogenous (Helicobacter pylori (endogenous in strain KR497)) (UniProt P77872); assay: as above
[3] = target: catalase KatA of H. pylori KR697, endogenous (Helicobacter pylori (endogenous in strain KR697)) (UniProt P77872); assay: as above

Substance	Kd (Vn^80–396 (human)) [nM]	koff (Vn^80–396 (human)) [s⁻¹]	kon (Vn^80–396 (human)) [M⁻¹ s⁻¹]	reduction of Vn binding to whole bacteria on deletion of katA [1] [%]	reduction of Vn binding to whole bacteria on deletion of katA [2] [%]	reduction of Vn binding to whole bacteria on deletion of katA [3] [%]
full length recombinant KatA (from UniProt P77872 1-505)	1	0.0003	1e+06	–	–	–
human serum vitronectin (Vn), activated, purified from serum (natural protein)	–	–	–	21	50	50
